Some targets named below: 56.a.09 UCA; 56.a.09 mature; MEDI8852 UCA; MEDI8852 mature.
Holding throughout (assay): SPR
In general terms: Surface plasmon resonance follows binding to a sensor surface in real time, without labels.

What is called Kd is the constant that tells how readily two partners part at equilibrium. Read a high Kd as weaker binding.

B1: 28H6E11 Fab (anti-idiotype antibody) (Fab, V domains shown)
VH: QVQLQQSGPEVVRPGVSVKISCKGSGYTFTDHAMHWVKQSHAKSLEWIGVFNTYNGDTNYNQKFEDKATMTIDKSSSTAYLELARLTSEDSAIYYCVRLGLLGFYALDYWGQGTSVTVSS
VL: DVLMTQTPLSLPVSLGDQASISCRSSQSIVHSNGNTYLEWYLQKPGQSPKLLIYKVSNRFSGVPDRFSGSGSGTDFTLKISRVEAEDLGVYYCFQGSHVPLTFGAGTKLELK
As for B1, the Kd is 32500 nM in the assay with 56.a.09 UCA, 496 nM with 56.a.09 mature, 0.943 nM with MEDI8852 UCA and 941 nM with MEDI8852 mature.

For the origin of these results see PMC11169713 (2024).
